Paper PMC5655127

Molecular target: KpBest^ΔC11 L177T (Klebsiella pneumoniae)
Assay: crystal structure; KpBest^ΔC11 L177T, sitting-drop vapor diffusion at 20°C, 0.05 M zinc acetate, 6% ethylene glycol, 0.1 M sodium cacodylate pH 6.0, 6.6% PEG 8000; solved to 3.1 Å by molecular replacement with 4WD8

For KpBest^ΔC11 L177T (natural protein), the stoichiometry N was 5.
